According to PMC1326249:

Target: U1A N-terminal RRM wild type (human, UniProt P09012 2-98)
Assay: SPR

Chain of U1A N-terminal RRM wild type (P09012 2-98): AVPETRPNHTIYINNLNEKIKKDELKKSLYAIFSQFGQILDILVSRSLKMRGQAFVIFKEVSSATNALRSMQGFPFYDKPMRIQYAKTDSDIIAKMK

B1: U1hpII (structured_RNA)
RNA: AGCUUAUCCAUUGCACUCCGGAUAAGCU
Kd: 0.07 nM
